According to US20150079113A1 (MIT, published 2015):

B1: α5 integrin (endogenous) (receptor, mouse, UniProt P11688 45-1053, looked up)
chain: FNLDAEAPAVLSGPPGSLFGFSVEFYRPGRDGVSVLVGAPKANTSQPGVLQGGAVYVCPWGTSPIQCTTIQFDSKGSRILESSLYSAKGEEPVEYKSLQWFGATVRAHGSSILACAPLYSWRTEKDPQNDPVGTCYLSTENFTRILEYAPCRSDFGSAAGQGYCQGGFSAEFTKTGRVVLGGPGSYFWQGQILSATQEQISESYYPEYLINPVQGQLQTRQASSVYDDSYLGYSVAVGEFSGDDTEDFVAGVPKGNLTYGYVTVLNGSDIHSLYNVSGEQMASYFGYAVAATDTNGDGLDDLLVGAPLLMERTADGRPQEVGRVYIYLQRPAGIDPTPTLTLTGQDEFSRFGSSLTPLGDLDQDGYNDVAIGAPFGGEAQQGVVFIFPGGPGGLSTKPSQVLQPLWAAGRTPDFFGSALRGGRDLDGNGYPDLIVGSFGVDKALVYRGRPIISASASLTIFPSMFNPEERSCSLEGNPVSCINLSFCLNASGKHVPNSIGFEVELQLDWQKQKGGVRRALFLTSKQATLTQTLLIQNGAREDCREMKIYLRNESEFRDKLSPIHIALNFSLDPKAPMDSHGLRPVLHYQSKSRIEDKAQILLDCGEDNICVPDLQLDVYGEKKHVYLGDKNALNLTFHAQNLGEGGAYEAELRVTAPLEAEYSGLVRHPGNFSSLSCDYFAVNQSRQLVCDLGNPMKAGTSLWGGLRFTVPHLQDTKKTIQFDFQILSKNLNNSQSNVVSFPLSVEAQAQVSLNGVSKPEAVIFPVSDWNPQDQPQKEEDLGPAVHHVYELINQGPSSISQGVLELSCPQALEGQQLLYVTKVTGLSNCTSNYTPNSQGLELDPETSPHHLQKREAPGRSSTASGTQVLKCPEAKCFRLRCEFGPLHRQESRSLQLHFRVWAKTFLQREYQPFSLQCEAVYEALKMPYQILPRQLPQKKLQVATAVQWTKAEGSNGVPLWIIILAILFGLLLLGLLIYVLYKLGFFKRSLPYGTAMEKAQLKPPATSDA
notes: whole, on cells; Present in cells as the α5β1 heterodimer; detected by immunofluorescence or immunoprecipitated from lysates; also called endogenous α5; alpha5 integrin
B2: GFP-tagged EVH1 domain of Mena (other, UniProt Q03173 1-112, looked up)
chain: MSEQSICQARAAVMVYDDANKKWVPAGGSTGFSRVHIYHHTGNNTFRVVGRKIQDHQVVINCAIPKGLKYNQATQTFHQWRDARQVYGLNFGSKEDANVFASAMMHALEVLN
notes: domain: EVH1 domain; not shown: GFP tag
B3: Purified His-tagged LERER repeat protein (His-LERER) (other, mouse, UniProt Q03173 175-252, looked up)
chain: LERERMERERLERERLERERLERERLEQEQLERQRQEREHVERLERERLERLERERQERERERLEQLEREQVEWERER
notes: domain: LERER repeat; Expressed and purified from E. coli (pQE80L-His-LERER); also called LERER repeat region of Mena; not shown: His tag of the pQE80L vector
B4: β1 integrin (endogenous) (receptor, mouse, UniProt P09055 21-798, looked up)
chain: QTDKNRCLKANAKSCGECIQAGPNCGWCTNTTFLQEGMPTSARCDDLEALKKKGCQPSDIENPRGSQTIKKNKNVTNRSKGMAEKLRPEDITQIQPQQLLLKLRSGEPQKFTLKFKRAEDYPIDLYYLMDLSYSMKDDLENVKSLGTDLMNEMRRITSDFRIGFGSFVEKTVMPYISTTPAKLRNPCTSEQNCTSPFSYKNVLSLTDRGEFFNELVGQQRISGNLDSPEGGFDAIMQVAVCGSLIGWRNVTRLLVFSTDAGFHFAGDGKLGGIVLPNDGQCHLENNVYTMSHYYDYPSIAHLVQKLSENNIQTIFAVTEEFQPVYKELKNLIPKSAVGTLSGNSSNVIQLIIDAYNSLSSEVILENSKLPDGVTINYKSYCKNGVNGTGENGRKCSNISIGDEVQFEISITANKCPNKESETIKIKPLGFTEEVEVVLQFICKCNCQSHGIPASPKCHEGNGTFECGACRCNEGRVGRHCECSTDEVNSEDMDAYCRKENSSEICSNNGECVCGQCVCRKRDNTNEIYSGKFCECDNFNCDRSNGLICGGNGVCRCRVCECYPNYTGSACDCSLDTGPCLASNGQICNGRGICECGACKCTDPKFQGPTCETCQTCLGVCAEHKECVQCRAFNKGEKKDTCAQECSHFNLTKVESREKLPQPVQVDPVTHCKEKDIDDCWFYFTYSVNGNNEAIVHVVETPDCPTGPDIIPIVAGVVAGIVLIGLALLLIWKLLMIIHDRREFAKFEKEKMNAKWDTGENPIYKSAVTTVVNPKYEGK
notes: whole, on cells
B5: GFP-MenaΔLERER (other, UniProt Q03173-3 1-541, looked up)
chain: MSEQSICQARAAVMVYDDANKKWVPAGGSTGFSRVHIYHHTGNNTFRVVGRKIQDHQVVINCAIPKGLKYNQATQTFHQWRDARQVYGLNFGSKEDANVFASAMMHALEVLNSQEAGPTLPRQNSQLPAQVQNGPSQEELEIQRRQLQEQQRQKERMSNAAAPASAETPLNPELGDSSASEPGLQAASQPAESPTPQGLVLGPPAPPPPPPLPSGPAYASALPPPPGPPPPPPLPSTGPPPPPPPPPPLPNQAPPPPPPPPAPPLPASGIFSGSTSEDNRPLTGLAAAIAGAKLRKVSRVEDGSFPGGGNTGSVSLASSKADAGRGNGPLPLGGSGLMEEMSALLARRRRIAEKGSTIETEQKEDRNEDAEPITAKAPSTSTPEPTRKPWERTNTMNGSKSPVISRPKSTPSSQPSANGVQTEGLDYDRLKQDILDEMRKELAKLKEELIDAIRQELSKSNTA
notes: Expressed in MVD7 cells; also called Mena mutant lacking the LERER repeat; not shown: GFP tag

Assays:
[1] = biological target: p34 subunit of Arp2/3 (endogenous) (UniProt Q9CVB6 1-300); test: α5 immunoprecipitation from NIH3T3 cell lysates, western blot
Source text: To determine if endogenously expressed Mena and α5 integrin form complexes within cells, α5 integrin was immunoprecipitated from NIH3T3 cell lysates followed by Western blot analysis (FIG. 2B).
Western Blotting/Immunoprecipitation. Standard procedures were used for protein electrophoresis, western blotting and immunoprecipitations. Western blots were developed using HRP secondary antibodies and ECL reagent (Amersham). […] Beads were washed three times in lysis buffer, and proteins were eluted in sample buffer.

[2] = biological target: B1; test: recruitment of α5 to mitochondria in cells expressing FP4-Mito, immunofluorescence
Procedure: Microscopy—Cells were fixed in 4% paraformaldehyde in PHEM buffer warmed to 37° C. for 20 minutes. Cells were permeabilized in 0.2% TX-100 and blocked in 10% Donkey Serum. […] (Abcam ab25247), integrin αv [RMV-7] (Abcam ab63490), integrin α6 [GoH3] […] F-actin was stained with AlexaFluor Phalloidin (Invitrogen). Z series of images were taken on an Olympus microscope with a 60× plan apo objective. Images were deconvolved using Deltavision Softworx software.

[3] = biological target: T1, Purified GST (UniProt P08515 1-218 = GST); test: GST pull-down with purified proteins, western blot with anti-His
T1 construct: Control bait in the pull-down assay
T1 sequence (P08515 whole entry): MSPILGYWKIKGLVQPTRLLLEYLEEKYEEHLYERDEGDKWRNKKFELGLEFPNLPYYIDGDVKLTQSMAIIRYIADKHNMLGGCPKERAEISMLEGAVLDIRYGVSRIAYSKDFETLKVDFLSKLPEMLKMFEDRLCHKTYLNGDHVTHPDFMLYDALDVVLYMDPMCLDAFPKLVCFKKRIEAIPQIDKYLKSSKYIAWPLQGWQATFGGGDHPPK
Procedure: After incubation, GST- and GST-α5 beads containing the His-LERER bound fraction were recovered and analyzed by western blotting along with aliquots of unbound protein from the supernatant.
Binding Assays: GST-α5 integrin constructs and His-tagged variants of the LERER repeat region were expressed and purified from E. Coli. 10 nM α5 integrin cytoplasmic tail was immobilized on Glutathione beads and incubated for 1 hour, 4° C. with 200 nM His-LERER variants at constant agitation in PBS with 0.1% TritonX-100 and 2 mM βME. Beads were washed three times, and proteins were eluted in sample buffer, and assayed by western blot.

[4] = biological target: B1; test: recruitment to mitochondria in cells expressing FP4-Mito, immunofluorescence
Procedure: Microscopy—Cells were fixed in 4% paraformaldehyde in PHEM buffer warmed to 37° C. for 20 minutes. Cells were permeabilized in 0.2% TX-100 and blocked in 10% Donkey Serum. […] (Abcam ab25247), integrin αv [RMV-7] (Abcam ab63490), integrin α6 [GoH3] […] F-actin was stained with AlexaFluor Phalloidin (Invitrogen).

[5] = biological target: B1; test: cell-based or functional assay

Binder: B1
binding result [1]: no binding

Binder: B2
binding result [2]: no binding

Binder: B3
binding result [3]: no binding (tested: 200 nM His-LERER variants)

Binder: B4
binding result [4]: binds

Binder: B5
t1/2 of fluorescence recovery (FRAP) in nascent, peripheral adhesions, cells plated for 30 minutes on FN [5]: 11.9 s
binding result [2]: no binding
